The record followed here is the supplement of paper PMC5998384.

In data set [1] the test system is HeLa Kyoto. The experiment in a line: solubility in G1/S (NP-40 vs SDS abundance) (log2 ratio); higher = more soluble. The following applies: cell cycle stage: G1/S.
In data set [2] the test system is HeLa Kyoto. The experiment in a line: solubility change mitosis vs G1/S (difference of NP-40 vs SDS log2 ratios) (log2 ratio difference); higher = more soluble in mitosis.
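For solubility change mitosis vs G1/S (difference of NP-40 vs SDS log2 ratios) in this document: synchronized HeLa Kyoto cells (double thymidine block for G1/S, nocodazole release for mitosis), protein amounts in NP-40 versus SDS lysates quantified by mass spectrometry, three biological replicates.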
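For solubility in G1/S (NP-40 vs SDS abundance) in this document: HeLa Kyoto cells arrested at G1/S by double thymidine block, proteins quantified by TMT10plex mass spectrometry in mild NP-40 versus SDS extracts, three biological replicates.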

Turning to “MEDSQDLNEQSVKKTCTESDVSQSQNSRSMEMQDLASPHTLVGGGDTPGSSKLEKSNLSSTSVTTNGTGGENMTVLNTADWLLSCNTPSSATMSLLAVKTEPLNSSETTATTGDGALDTFTGSVITSSGYSPRSAHQYSPQLYPSKPYPHILSTPAAQTMSAYAGQTQYSGMQQPAVYTAYSQTGQPYSLPTYDLGVMLPAIKTESGLSQTQSPLQSGCLSYSPGFSTPQPGQTPYSYQMPGSSFAPSSTIYANNSVSNSTNFSGSQQDYPSYTAFGQNQYAQYYSASTYGAYMTSNNTADGTPSSTSTYQLQESLPGLTNQPGEFDTMQSPSTPIKDLDERTCRSSGSKSRGRGRKNNPSPPPDSDLERVFVWDLDETIIVFHSLLTGSYAQKYGKDPPMAVTLGLRMEEMIFNLADTHLFFNDLEECDQVHIDDVSSDDNGQDLSTYSFATDGFHAAASSANLCLPTGVRGGVDWMRKLAFRYRRVKELYNTYKNNVGGLLGPAKRDAWLQLRAEIEGLTDSWLTNALKSLSIISTRSNCINVLVTTTQLIPALAKVLLYSLGGAFPIENIYSATKIGKESCFERIMQRFGRKVVYVVIGDGVEEEQAAKKHNMPFWRISSHSDLLALHQALELEYL [EYA4]”, the “solubility in G1/S (log2)” value in the data set on HeLa Kyoto [1] is -0.147. In the data set on HeLa Kyoto [2], the “solubility change mitosis (log2)” value was -0.16.

Consider “MEEERGSALAAESALEKNVAELTVMDVYDIASLVGHEFERVIDQHGCEAIARLMPKVVRVLEILEVLVSRHHVAPELDELRLELDRLRLERMDRIEKERKHQKELELVEDVWRGEAQDLLSQIAQLQEENKQLMTNLSHKDVNFSEEEFQKHEGMSERERQVMKKLKEVVDKQRDEIRAKDRELGLKNEDVEALQQQQTRLMKINHDLRHRVTVVEAQGKALIEQKVELEADLQTKEQEMGSLRAELGKLRERLQGEHSQNGEEEPETEPVGEESISDAEKVAMDLKDPNRPRFTLQELRDVLHERNELKSKVFLLQEELAYYKSEEMEEENRIPQPPPIAHPRTSPQPESGIKRLFSFFSRDKKRLANTQRNVHIQESFGQWANTHRDDGYTEQGQEALQHL [RILPL1]”, for which the “solubility in G1/S (log2)” value with HeLa Kyoto [1] worked out at 0.246. In the data set on HeLa Kyoto [2], the “solubility change mitosis (log2)” value is -0.0361.

In the case of “MEEIKPASASCVSKEKPSKVSDLISRFEGGSSLSNYSDLKKESAVNLNAPRTPGRHGLTTTPQQKLLSQHLPQRQGNDTDKTQGAQTCVANGVMAAQNQMECEEEKAATLSSDTSIQASEPLLDTHIVNGERDETATAPASPTTDSCDGNASDSSYRTPGIGPVLPLEERGAETETKVQERENGESPLELEQLDQHHEMKETNEQKLHKIANELLLTERAYVNRLDLLDQVFYCKLLEEANRGSFPAEMVNKIFSNISSINAFHSKFLLPELEKRMQEWETTPRIGDILQKLAPFLKMYGEYVKGFDNAMELVKNMTERIPQFKSVVEEIQKQKICGSLTLQHHMLEPVQRIPRYEMLLKDYLRKLPPDSLDWNDAKKSLEIISTAASHSNSAIRKMENLKKLLEIYEMLGEEEDIVNPSNELIKEGQILKLAARNTSAQERYLFLFNNMLLYCVPKFSLVGSKFTVRTRVGIDGMKIVETQNEEYPHTFQVSGKERTLELQASSAQDKEEWIKALQETIDAFHQRHETFRNAIAKDNDIHSEVSTAELGKRAPRWIRDNEVTMCMKCKEPFNALTRRRHHCRACGYVVCWKCSDYKAQLEYDGGKLSKVCKDCYQIISGFTDSEEKKRKGILEIESAEVSGNSVVCSFLQYMEKSKPWQKAWCVIPKQDPLVLYMYGAPQDVRAQATIPLLGYVVDEMPRSADLPHSFKLTQSKSVHSFAADSEELKQKWLKVILLAVTGETPGGPNEHPATLDDHPEPKKKSEC [FGD4]”, the “solubility in G1/S (log2)” value in the data set with HeLa Kyoto [1] was -0.163. For the same sequence, the “solubility change mitosis (log2)” value in the data set on HeLa Kyoto [2] was -0.00729.

Take “MEESMEEEEGGSYEAMMDDQNHNNWEAAVDGFRQPLPPPPPPSSIPAPAREPPGGQLLAVPAVSVDRKGPKEGLPMGPQPPPEANGVIMMLKSCDAAAAVAKAAPAPTASSTININTSTSKFLMNVITIEDYKSTYWPKLDGAIDQLLTQSPGDYIPISYEQIYSCVYKCVCQQHSEQMYSDLIKKITNHLERVSKELQASPPDLYIERFNIALGQYMGALQSIVPLFIYMNKFYIETKLNRDLKDDLIKLFTEHVAEKHIYSLMPLLLEAQSTPFQVTPSTMANIVKGLYTLRPEWVQMAPTLFSKFIPNILPPAVESELSEYAAQDQKFQRELIQNGFTRGDQSRKRAGDELAYNSSSACASSRGYR [CACUL1]”: the “solubility in G1/S (log2)” value in the data set with HeLa Kyoto [1] amounted to 0.278. In addition, in the data set with HeLa Kyoto [2], the “solubility change mitosis (log2)” value amounted to 0.103.

In the case of “MEFLLGNPFSTPVGQCLEKATDGSLQSEDWTLNMEICDIINETEEGPKDAIRALKKRLNGNRNYREVMLALTVLETCVKNCGHRFHILVANRDFIDSVLVKIISPKNNPPTIVQDKVLALIQAWADAFRSSPDLTGVVHIYEELKRKGVEFPMADLDALSPIHTPQRSVPEVDPAATMPRSQSQQRTSAGSYSSPPPAPYSAPQAPALSVTGPITANSEQIARLRSELDVVRGNTKVMSEMLTEMVPGQEDSSDLELLQELNRTCRAMQQRIVELISRVSNEEVTEELLHVNDDLNNVFLRYERFERYRSGRSVQNASNGVLNEVTEDNLIDLGPGSPAVVSPMVGNTAPPSSLSSQLAGLDLGTESVSGTLSSLQQCNPRDGFDMFAQTRGNSLAEQRKTVTYEDPQAVGGLASALDNRKQSSEGIPVAQPSVMDDIEVWLRTDLKGDDLEEGVTSEEFDKFLEERAKAAEMVPDLPSPPMEAPAPASNPSGRKKPERSEDALFAL [TOM1L2]”, the “solubility in G1/S (log2)” value with HeLa Kyoto [1] amounted to 0.292. For the same sequence, the “solubility change mitosis (log2)” value in the data set on HeLa Kyoto [2] was -0.0085.

As for “MEGESSRFEIHTPVSDKKKKKCSIHKERPQKHSHEIFRDSSLVNEQSQITRRKKRKKDFQHLISSPLKKSRICDETANATSTLKKRKKRRYSALEVDEEAGVTVVLVDKENINNTPKHFRKDVDVVCVDMSIEQKLPRKPKTDKFQVLAKSHAHKSEALHSKVREKKNKKHQRKAASWESQRARDTLPQSESHQEESWLSVGPGGEITELPASAHKNKSKKKKKKSSNREYETLAMPEGSQAGREAGTDMQESQPTVGLDDETPQLLGPTHKKKSKKKKKKKSNHQEFEALAMPEGSQVGSEVGADMQESRPAVGLHGETAGIPAPAYKNKSKKKKKKSNHQEFEAVAMPESLESAYPEGSQVGSEVGTVEGSTALKGFKESNSTKKKSKKRKLTSVKRARVSGDDFSVPSKNSESTLFDSVEGDGAMMEEGVKSRPRQKKTQACLASKHVQEAPRLEPANEEHNVETAEDSEIRYLSADSGDADDSDADLGSAVKQLQEFIPNIKDRATSTIKRMYRDDLERFKEFKAQGVAIKFGKFSVKENKQLEKNVEDFLALTGIESADKLLYTDRYPEEKSVITNLKRRYSFRLHIGRNIARPWKLIYYRAKKMFDVNNYKGRYSEGDTEKLKMYHSLLGNDWKTIGEMVARSSLSVALKFSQISSQRNRGAWSKSETRKLIKAVEEVILKKMSPQELKEVDSKLQENPESCLSIVREKLYKGISWVEVEAKVQTRNWMQCKSKWTEILTKRMTNGRRIYYGMNALRAKVSLIERLYEINVEDTNEIDWEDLASAIGDVPPSYVQTKFSRLKAVYVPFWQKKTFPEIIDYLYETTLPLLKEKLEKMMEKKGTKIQTPAAPKQVFPFRDIFYYEDDSEGEDIEKESEGQAPCMAHACNSSTLGGQGRWII [TTF1]”, in the data set on HeLa Kyoto [1], the “solubility in G1/S (log2)” value was -1.02. In addition, the “solubility change mitosis (log2)” value with HeLa Kyoto [2] came out at 0.169.

As for “MEGSFSDGGALPEGLAEEAEPQGAAWSGDSGTVSQSHSSASGPWEDEGAEDGAPGRDLPLLRRAAAGYAACLLPGAGARPEVEALDASLEDLLTRVDEFVGMLDMLRGDSSHVVSEGVPRIHAKAAEMRRIYSRIDRLEAFVRMVGGRVARMEEQVTKAEAELGTFPRAFKKLLHTMNVPSLFSKSAPSRPQQAGYEAPVLFRTEDYFPCCSERPQL [BLOC1S4]”, the “solubility in G1/S (log2)” value with HeLa Kyoto [1] worked out at 0.477. Moreover, in the data set on HeLa Kyoto [2], the “solubility change mitosis (log2)” value came to 0.323.
